Experiment: yeast display, Sf9 membrane polyspecificity reagent, FACS + sequencing; frameworks hold sequencing errors
How it was run: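 Sorting gates, low and high (top ~1%), were placed on anti-HA fluorescence to track expression and on streptavidin fluorescence to track reagent binding. A clone's polyreactivity label is taken from the gate it came out of. The reagent was 10% biotinylated, detergent-solubilized Sf9 membrane, applied for 1 hour at 4 °C to galactose-induced yeast display cells.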

Sequence	polyreactivity (PSR sort gate)
QFQLVESGGGLVQAGGSLRLSCAASGRIFFSNAMGWYRQAPGKERELVASITGGDDTNYADSVKGRFTISRDNAKNSVYLQMNSLKPEDTAFYYCAARAIPSYRWVYRFAPKYDYWGQGTQVTVSS	low polyreactivity
QFQLVESGGGLVQAGGSLRLSCAASGRIFRYYSMGCYIQSPGKERELVAAITRGGSTNYADSVKGRFTISGDNANNNVYLQMNSLKPEDSAVYYCAVRGCYTWPTYNYWGHGTQVTVSS	high polyreactivity
QFQLVESGGGLVQAGGSLRLSCAASGRIWWNAKGWYRQAPGNEREMVAAIRWSGGIKRYADSVKGRFTISRDNAKNTVYLQMNSLKREDTAVYYCDARLGGSIRSKFDYWGQGTQVTVSS	high polyreactivity
QFQLVESGGGLVQAGGSLRLSCAASGRTFWWYAMGWYRQAPGKERELVAAITSRGTTYYADSVKGRFTISRDNAKNTVYLQMNSLKPEDTAVYYCNAVQATRYTDYDYWGQGTQVTVSS	high polyreactivity
QFQLVESGGGLVQAGGSLRLSCAASGSIFKYNAMGWYRQAPGKEREFVAAISSSSGNTYYADSVKGRFTISRDNAKNTLYFQMNSLKPEDTAVYYCAADASRPRIPEMYYWGQGTQVTVSS	high polyreactivity
QFQLVESGGGLVQAGGSLRLSCAASGSIFLAYDMGWYRQAPGKERELVAGITSGGTTYYADSVKGRFTISRDNAKNTVYLQMNSLKPADTAVYYCAALLYTPYYYWGQGTQVTVSS	low polyreactivity
QFQLVESGGGLVQAGGSLRLSCAASGSIFRGYTMGWYRQAPGKERELVAAISWSGGSTYYADSVKGRFTISRDNAKNTVYLQMNSLKPEDTAVYFCAAGDYYHRIFLWYDYWGQGTQVTVSS	low polyreactivity
QFQLVESGGGLVQAGGSLRLSCAASGSIFYTYVMGWYRQAPGKERELVAVISWSSTSTYYADSVKGRFTISRDNAKNTVYLQMNSLKPEDTAVYYCAAGVHRYRPGHGYDDGGYYWGQGTQVTVSS	low polyreactivity
QFQLVESGGGLVQAGGSLRLSCAASGSILESNVMGWYRQAPGKERELVASISSSGVSTYADSVKGRFTISRDNAKNTVYLQMNSLKPEDNAVYYCAADRWYWTYALYYWGQGTQVTVSS	low polyreactivity
QFQLVESGGGLVQAGGSLRLSCAASGSTFLSNAMGWYRQAPGKERELVAGIDYNDGSTYYADSVKGRFTISRDNAKNTVYLKMNRLKPADTAVYYCAARWVFRRYVICMDFWGQGTEVTVSS	low polyreactivity
QFQLVESGGGLVQAGGSLRLSCAASGSTFQWYAMGWYRQAPGKERELVAAINKSGGTTYYADSVKGRFTISRDNAKNTVYLQMNSLKPEDTAVYYCATDNPVVYQPGNMDYWGQGTQVTVSS	low polyreactivity
QFQLVESGGGLVQAGGSLRLSCAASGSTFRIYTMGWYRQAPGKHRELVAGISSSGNTNYADSVKGRFTISRDNAKNTVYLQMYSLKPEDTAVYYCAAVQPAWGNGYWGQGTQVTVSS	high polyreactivity
QFQLVESGGGLVQAGGSLRLSCAASGSTFRTYAMGWYRQAPRKERELVADITWRGGSKYYADSVKGRFTISRDNAKNTVYSQMNSLKPEDPAVYYCATDRGPEVVLYDYWGQGTQVTVSS	low polyreactivity
QFQLVESGGGLVQAGGSLRLSCAASGSTFTPNVMGWYRQAPGKERELVAAINSSGGSTFYADSVKGRFTISRDNAKNTVYLQMNSLNPEDTAVYYCAASWHTPTVYDEYYYWGQGTQVTVSS	low polyreactivity
QFQLVESGGGLVQAGGSLRLSCAASGSTFTQNTMGWYRQAPGKERELVAAISRRGGGTYYADSVKGRFTISRDNAKNTVYLQMNSLKPEDTAVYYCNAPYILTQQGGRRYDYWGQGTQVTVSS	high polyreactivity
QFQLVESGGGLVQAGGSLRLSCAASGSTFYANAMGLYRQAPGKERELVAAISYSGGSTYYADSVKGRFTISRDNAKNTVYLQMNSLKPEDTAVYYCAATNGKKTPKVYYWGQGTQVTVSS	low polyreactivity

Sequence	polyreactivity (PSR sort gate)
QFQLVESGGGLVQAGGSLRLSCAASGYTFAVNTMGWYRQAPGKESELVAAITLGGGSTYYADSVKGRFTISRDNAKNTVYLQMNSLKPEDTAVYYCATDPVDYRGWWRGYKYDYWGQGTQVTVSS	low polyreactivity
QFQLVESGGGLVQAGGSLRLSCAPSGFIISSNAMGGYRQAPGKERELVAAISARGGSTYYADSVKRRFTISRDNAKNTVYLQMNSLKPEDTAVYYCNTDYKTTGDYWGEGTQVTVSS	high polyreactivity
QFQLVESGGGLVQAGGSLRLSCASSGGTFGNNDMGWYRQAPGKESELVAAIRSAGTTYYADSVKGRFTISRDNAKNTVYLQMNSLKPEDTAVYYCNADTTGYWSYGFQYYGEDYWGQGTQVTVSS	low polyreactivity
QFQLVESGGGLVQAGGSLRLSCASSGRTFGYNTMGWYRQAPGKERELVAAINYSGGSTYYADSVKGRFTISRDNAKNTVYLQMNSLKPEDTAVYYCNAKPRWYVPYDYWGQGTQVTVSS	high polyreactivity
QFQLVESGGGLVQAGGSLRLSCASYGFTFEYNAMGGYRQSPGKESEFVATISWSGGSTYYADSVKGRFTFSRDKAKNTVYLQMNSLKPEDTAVYYCNAEVFFPSTYGMDYWGQGTQVTVSS	low polyreactivity
QFQLVESGGGLVQAGGSLRLSCPPSGSIFPGYAMGWSRQSPGKERELVATITWSGGSTYYADSVKGRFTISRDNAKNTVYLQLTSLKPEDTAVYYCNADTNWYYQLNYYGLYDYWGQGTQVTVSS	low polyreactivity
QFQLVESGGGLVQAGGSLRLSCSSSGSIFGAYDMGWYRQAPGKERELVAAITSVGSTYYADSVKGRFTISRDNAKNTVYLQMNSLKPEDTAVYDCAKRQWRPTYRYGYWGQGTQVTVSW	low polyreactivity
QFQLVESGGGLVQAGGSLRLSGAASGRTFRIYAMGWYRQAPGKDRELVAAITRSSGSTYYADSVKGRFTISRDNAKNTVYLQMNSLKPEDTAVYYCAAEALFEPIYDYWGQGTQVTVSS	high polyreactivity
QFQLVESGGGLVQAGPSLLLSFAASGNTLHVYAMGRYRQAPGKERELVAAITSDVSTYYADSVKGRFTISRDNAKNTVYLQMHSLKPEDTAVYYFATTGYGSYLIYWGQGTQVTVSS	low polyreactivity
QFQLVESGGGLVQEGGSLRLSCAASGFTFYYYTMGWYRQAPGKERELVAAITWRGGSTNYADSVKGRFTISRDNAKNTVYLQMNSLKPEDTAVYYCAAVTYWFWPGMDYWGQGTQVTVSS	low polyreactivity
QFQLVESGGGVVQAGGSLRLSCAASGSIIYVNAMGWYRQAPGKERELVAAINYSGDSTYYADSVKGRFTISRDNAKNTVYLQMNSLKPEDTAVYYCAADIYVYYAPVYQYYWYDSWGQGTQVTVSS	high polyreactivity
QFQLVESGRGLVQAGGSLRLSCAASVRTFGFNAMGRYRQAPRKERELVAAISGSGGRTYYADSVKGRFTISRDKAKNTVYLQMNSLKPEDTAVYYCAAGARRGGSGYWGQGTQVTVSS	high polyreactivity
QFQLVESGVGLVQAGGSLRLSCAASGFTFWYYAMGWYRQAPGKERELVARITSRAADTYADSVKGRFTISRDNAKNTVYLQMNSLKPEDTAVYYCNAEFGRARDDDYSGQGTQVTVSS	low polyreactivity
QFQLVESGVGLVQAGGSLRLSCAASVRIFITNAMGWYRQAPGKERELVAAISGGSTYYGDSVKGRFTISRDNAKNTVYLQMNSLKPEDTAVYYCAVDNYYTPWYPYLGYDSWGQGTQVTVSS	low polyreactivity
QFQLVESVGCLVQAGGSLRLSCAASGILFSWYAMGWYRQPPGKERELVAAISKGGGSTYYADSVKGRFTISRDNAKNTVYLQMNSLIPEDTAVYYCAADSSYGYGYWGQGTQVTVSS	high polyreactivity
QFQLVESVGGLVQAGGSLRLSCAASGNIFPAYAMGWYRQAPGKERELVAAISKSGGRTYYADSVKGRFTISRDNAKNTVYLQMNSQKPEDTAVYYALLTVLRAVPYSVRYDYCGQGTQVTVSS	high polyreactivity

From the nanobody polyreactivity screen of Harvey et al. (2022)
